# Data: publication PMC6532394
# Read-outs that look alike come from different tables or passages of the source.
# Assays:
# Assay in all cases: fluorescence anisotropy
# MeCP2 (full-length) [1] = biological target: T1, MeCP2 (full-length) (human, UniProt P51608 1-486)
# MeCP2 (full-length) [2] = biological target: T1, MeCP2 (full-length); remark: listed apart in the source
# MeCP2 (full-length) [3] = biological target: T1, MeCP2 (full-length); remark: listed apart in the source
# MeCP2 (full-length) [4] = biological target: T1, MeCP2 (full-length); remark: listed apart in the source
# MeCP2 (full-length) [5] = biological target: T1, MeCP2 (full-length); remark: listed apart in the source
# MeCP2 (full-length) [6] = biological target: T1, MeCP2 (full-length); remark: listed apart in the source
# MeCP2 (full-length) [7] = biological target: T1, MeCP2 (full-length); remark: listed apart in the source
# T1 sequence (P51608 whole entry): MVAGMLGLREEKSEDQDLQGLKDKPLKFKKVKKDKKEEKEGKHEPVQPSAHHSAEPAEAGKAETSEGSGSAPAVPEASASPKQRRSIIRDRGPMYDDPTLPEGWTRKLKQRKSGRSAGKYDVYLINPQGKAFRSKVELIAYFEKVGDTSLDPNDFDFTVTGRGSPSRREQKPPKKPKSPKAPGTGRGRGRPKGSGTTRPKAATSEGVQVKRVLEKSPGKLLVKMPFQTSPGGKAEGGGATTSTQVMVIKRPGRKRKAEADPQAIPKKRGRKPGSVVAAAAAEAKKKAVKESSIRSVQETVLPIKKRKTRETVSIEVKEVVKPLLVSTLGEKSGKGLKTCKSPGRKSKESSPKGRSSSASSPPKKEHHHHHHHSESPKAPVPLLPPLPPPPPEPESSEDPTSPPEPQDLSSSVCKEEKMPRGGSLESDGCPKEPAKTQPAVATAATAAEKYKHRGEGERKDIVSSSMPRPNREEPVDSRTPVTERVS
Binder,Kd (MeCP2 (full-length) [1]) [nM],Kd (MeCP2 (full-length) [2]) [nM],Kd (MeCP2 (full-length) [3]) [nM],Kd (MeCP2 (full-length) [4]) [nM],Kd (MeCP2 (full-length) [5]) [nM],Kd (MeCP2 (full-length) [6]) [nM],Kd (MeCP2 (full-length) [7]) [nM]
"CpG 20 bp duplex (-/-) (dsDNA, none) DNA 1: TCTGGAACGGAATTCTTCTA DNA 2: TAGAAGAATTCCGTTCCAGA",56.5 ± 1.8,155 ± 3.7,6.3 ± 0.3,,,,
"mCpG 20 bp duplex (m/m) (dsDNA, 5mC at CpG C of both strands (strand 1 C8, strand 2 C12)) DNA 1: TCTGGAACGGAATTCTTCTA DNA 2: TAGAAGAATTCCGTTCCAGA",,,,28.3 ± 1.1,80.3 ± 2.5,36.5 ± 1.4,5.2 ± 0.4
